Where no end group is shown, it is not given here.
Target: SARS-CoV-2 M^pro (Severe acute respiratory syndrome coronavirus 2, UniProt P0DTD1)
Assay: biochemical
Type: biochemical
Details: for M^pro inhibition (%): 100 µM

## Ac-SDKP
Iterative N- and C-terminal fragments of Ac-Tβ1-17
  M^pro inhibition, in vitro screening of Ac-Tβ1-17 fragments: less than 50%

## Ac-Tβ4_17-43: peptide metabolite of Ac-Tβ4, amino acids 17-43 (LKKTETQEKNPLPSKETIEQEKQAGES; Thymosin beta-4; UniProt P62328 18-44, looked up, fragment)
  M^pro inhibition (%): 25.16%

## Ac-Tβ4_31-43: peptide metabolite of Ac-Tβ4, amino acids 31-43 (KETIEQEKQAGES; Thymosin beta-4; UniProt P62328 32-44, looked up, fragment)
  M^pro inhibition (%): 1.88%

## Ac-Tβ4_1-11: peptide metabolite of Ac-Tβ4, amino acids 1-11 (Ac-SDKPDMAEIEK; UniProt P62328 2-12, looked up, fragment)
  M^pro inhibition (%): 1.25%

## CC[C@H](C)[C@H](NC(=O)[C@H](CCC(=O)O)NC(=O)[C@H](C)NC(=O)[C@H](CCSC)NC(=O)[C@H](CC(=O)O)NC(=O)[C@@H]1CCCN1C(=O)[C@H](CCCCN)NC(=O)[C@H](CC(=O)O)NC(=O)[C@H](CO)NC(C)=O)C(=O)N[C@@H](CCC(=O)O)C(=O)N[C@@H](CCCCN)C(=O)N[C@@H](Cc1ccccc1)C(=O)N[C@@H](CC(=O)O)C(=O)N[C@@H](CCCCN)C(=O)N[C@@H](CO)C(=O)N[C@@H](CCCCN)C(=O)N[C@@H](CC(C)C)C(=O)N[C@@H](CCCCN)C(=O)N[C@@H](CCCCN)C(=O)N[C@H](C(=O)N[C@@H](CCC(=O)O)C(=O)N[C@H](C(=O)N[C@@H](CCC(N)=O)C(=O)N[C@@H](CCC(=O)O)C(=O)N[C@@H](CCCCN)C(=O)N[C@@H](CC(N)=O)C(=O)N1CCC[C@H]1C(=O)N[C@@H](CC(C)C)C(=O)N1CCC[C@H]1C(=O)N[C@@H](CO)C(=O)N[C@@H](CCCCN)C(=O)N[C@@H](CCC(=O)O)C(=O)N[C@H](C(=O)N[C@H](C(=O)N[C@@H](CCC(=O)O)C(=O)N[C@@H](CCC(N)=O)C(=O)N[C@@H](CCC(=O)O)C(=O)N[C@@H](CCCCN)C(=O)N[C@@H](CCC(N)=O)C(=O)N[C@@H](C)C(=O)NCC(=O)N[C@@H](CCC(=O)O)C(=O)N[C@@H](CO)C(=O)O)[C@@H](C)CC)[C@@H](C)O)[C@@H](C)O)[C@@H](C)O [Ac-Tβ4, Acetyl-thymosin β4]
read-out: M^pro inhibition (%)
  inhibition at 100 µM: 7.09%
Six inhibitor concentrations 100 μM–97.65 nM
  IC50 against SARS-CoV-2 M^pro: no inhibition

## Ac-Tβ4_1-15: peptide metabolite of Ac-Tβ4, amino acids 1-15 (Ac-SDKPDMAEIEKFDKS)
  M^pro inhibition (%): 34.4%

— PMC11964602 (Bioactive Materials, 2025)
